T1: human recombinant (r)BCMA_Fc-AF647 (human, UniProt Q02223 1-54, AF647 fluorescent label (site not stated))
T1 construct: Staining reagent for CAR detection by flow cytometry; not shown: Fc part
T1 sequence (looked up): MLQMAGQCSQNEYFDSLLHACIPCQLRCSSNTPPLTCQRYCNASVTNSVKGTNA

B1: PI61 BCMA CAR (other)
chain: QVQLQESGGGVVQPGRSLRLSCAASGFTFSSYGMHWVRQAPGKGLEWVAVISYDGSNKYYADSVKGRFTISRDNSKNTLYLQMNSLRAEDTAVYYCGGSGYALHDDYYGLDVWGQGTLVTVSSGGGGSGGGGSGGGGSQSALTQPASVSGSPGQSITISCTGTSSDVGGYNYVSWYQQHPGKAPKLMIYDVSNRPSGVSNRFSGSKSGNTASLTISGLQAEDEADYYCSSYTSSSTLYVFGSGTKVTVLTTTPAPRPPTPAPTIASQPLSLRPEACRPAAGGAVHTRGLDFACDIYIWAPLAGTCGVLLLSLVITLYCKRGRKKLLYIFKQPFMRPVQTTQEEDGCSCRFPEEEEGGCELRVKFSRSADAPAYQQGQNQLYNELNLGRREEYDVLDKRRGRDPEMGGKPRRKNPQEGLYNELQKDKMAEAYSEIGMKGERRRGKGHDGLYQGLSTATKDTYDALHMQALPPR
notes: Chimeric antigen receptor expressed on JNL cells or primary human T cells after lentiviral transduction; also called P161
B2: Hy52 BCMA CAR (other)
chain: EVQLVESGGGLVKPGGSLRLSCAASGFTFSSFRMNWVRQAPGKGLEWVSSISSSSSYIYYADSVKGRFTISRDNAKNSLYLQMNSLRAEDTAVYYCARWLSYYGMDVWGQGTTVTVSSGGGGSGGGGSGGGGSGGGGSDIVMTQTPLSLPVTPGEPASISCRSSQSLLDSDDGNTYLDWYLQKPGQSPQLLIYTLSFRASGVPDRFSGSGSGTDFTLKIRRVEAEDVGVYYCMQRIGFPITFGQGTRLEIKTTTPAPRPPTPAPTIASQPLSLRPEACRPAAGGAVHTRGLDFACDIYIWAPLAGTCGVLLLSLVITLYCKRGRKKLLYIFKQPFMRPVQTTQEEDGCSCRFPEEEEGGCELRVKFSRSADAPAYQQGQNQLYNELNLGRREEYDVLDKRRGRDPEMGGKPRRKNPQEGLYNELQKDKMAEAYSEIGMKGERRRGKGHDGLYQGLSTATKDTYDALHMQALPPR
notes: Chimeric antigen receptor expressed on JNL cells or primary human T cells after lentiviral transduction
B3: B61-02 BCMA CAR (other)
chain: QVQLVESGGGVVQPGRSLRLSCAASGFTFSSYGMHWVRQAPGKGLEWVAVISYKGSNKYYADSVKGRFTISRDNSKNTLYLQMNSLRAEDTAVYYCGGSGYALHDDYYGLDVWGQGTLVTVSSGGGGSGGGGSGGGGSGGGGSQSALTQPASVSGSPGQSITISCTGTSSDVGGYNYVSWYQQHPGKAPKLMIYEVSNRLRGVSNRFSGSKSGNTASLTISGLQAEDEADYYCSSYTSSSALYVFGSGTKVTVLTTTPAPRPPTPAPTIASQPLSLRPEACRPAAGGAVHTRGLDFACDIYIWAPLAGTCGVLLLSLVITLYCKRGRKKLLYIFKQPFMRPVQTTQEEDGCSCRFPEEEEGGCELRVKFSRSADAPAYQQGQNQLYNELNLGRREEYDVLDKRRGRDPEMGGKPRRKNPQEGLYNELQKDKMAEAYSEIGMKGERRRGKGHDGLYQGLSTATKDTYDALHMQALPPR
notes: as for B2
B4: B61-10 BCMA CAR (other)
chain: QVQLVESGGGVVQPGRSLRLSCAASGFTFSSYGMHWVRQAPGKGLEWVAVISYKGSNKYYADSVKGRFTISRDNSKNTLYLQMNSLRAEDTAVYYCGGSGYALHDDYYGLDVWGQGTLVTVSSGGGGSGGGGSGGGGSGGGGSQSALTQPASVSGSPGQSITISCTGTSSDVGGYNYVSWYQQHPGKAPKLMIYEVSNRLRGVSNRFSGSKSGNTASLTISGLQAEDEADYYCSSYTSSSTLYVFGSGTKVTVLTTTPAPRPPTPAPTIASQPLSLRPEACRPAAGGAVHTRGLDFACDIYIWAPLAGTCGVLLLSLVITLYCKRGRKKLLYIFKQPFMRPVQTTQEEDGCSCRFPEEEEGGCELRVKFSRSADAPAYQQGQNQLYNELNLGRREEYDVLDKRRGRDPEMGGKPRRKNPQEGLYNELQKDKMAEAYSEIGMKGERRRGKGHDGLYQGLSTATKDTYDALHMQALPPR
notes: as for B2
B5: Hy03 BCMA CAR (other)
chain: EVQLVESGGGLVQPGGSLRLSCAASGFTFSGFWMSWVRQAPGKGLEWVANIKQDGSEKYYVDSVRGRFTISRDNAKNSLYLQMNSLRAEDTAVYYCARALDYYGMDVWGQGTTVTVSSGGGGSGGGGSGGGGSGGGGSDIVMTQTPLSLPVTPGEPASISCRSSQSLLDSDDGNTYLDWYLQKPGQSPRLLIYTLSYRASGVPDRFSGSGSGTDFTLKISRVEAEDVGLYYCTQRLEFPSITFGQGTRLEIKTTTPAPRPPTPAPTIASQPLSLRPEACRPAAGGAVHTRGLDFACDIYIWAPLAGTCGVLLLSLVITLYCKRGRKKLLYIFKQPFMRPVQTTQEEDGCSCRFPEEEEGGCELRVKFSRSADAPAYQQGQNQLYNELNLGRREEYDVLDKRRGRDPEMGGKPRRKNPQEGLYNELQKDKMAEAYSEIGMKGERRRGKGHDGLYQGLSTATKDTYDALHMQALPPR
notes: as for B2

molecular target: T1, human recombinant (r)BCMA_Fc-AF647; experiment: flow cytometry, rBCMA_Fc-AF647 staining of CAR-transduced primary human T cells
Description: The following 8 CARs were chosen for analysis of CAR expression, stability and efficacy in primary T cells: R1B6, R1F2, RIGS, PI61, B61-10, B61-02, Hy03, and Hy52. BCMA CAR T cells were generated by starting with blood from healthy apheresed donors whose T cells (CD4+ and CD8+ lymphocytes) were obtained by negative selection for CD3+ T cells. These cells were activated by the addition of CD3/CD28 beads (Dynabeads® Human T-Expander CD3/CD28, Thermo Fisher Scientific) at a ratio of 1:3 (T cell to bead) in T cell medium (RPMI1640, 10% heat-inactivated fetal calf serum (FCS), 2 mM L-glutamine, 1× Penicillin/Streptomycin, 100 μM non-essential amino acids, 1 mM Sodium Pyruvate, 10 mM Hepes, and 55 μM 2-mercaptoethanol). T cells were cultured at 0.5×10⁶ T cells in 1 mL medium per well of a 24-well plate at 37° C., 5% CO₂. After 24 hours, when T cells were blasting, T cells were transduced with BCMA CAR virus at a multiplicity of infection (MOI) of 5. T cells began to divide in a logarithmic growth pattern, which was monitored by measuring the cell counts per mL, and T cells were diluted in fresh medium every two days and de-beaded and harvested for further analyses at day 9. Aliquots of T cells were stained to measure CAR expression by flow cytometry at day 5 and 9 on a FACS Fortessa (BD). All BCMA CAR T cells were produced under research grade (i.e., not clinical grade) manufacturing conditions.
The BCMA-CAR surface expression and its stability was assessed by measuring CAR % and MFI (mean fluorescence intensity) at day 5 and day 9 using flow cytometry analyses of rBCMA_Fc-AF647 stained cells (FIG. 2 and Table 17).

First: B1
Second: B2
The “CAR % on T cells, Day 5” value of the first is higher: 47.4% for the first, 35.1% for the second.

Going from B3 to B4, the “CAR % on T cells, Day 5” value rises from 33.5% to 41.1%.

In the case of B5, the “CAR % on T cells, Day 5” value is reported as 33.7%.

Compared with B1, B2 is lower in “CAR % on T cells, Day 9” value: 42.3% for the first, 36.1% for the second.

Compared with B3, B4 is higher in “CAR % on T cells, Day 9” value: 23.6% for the first, 30.3% for the second.

B5 was tested, and the “CAR % on T cells, Day 9” value was 18.1%.

Going from B1 to B2, the “CAR MFI on T cells, Day 5” value rises from 24400 MFI to 33700 MFI.

First: B3
Second: B4
The “CAR MFI on T cells, Day 5” value of the first is higher: 29100 MFI for the first, 27300 MFI for the second.

In the case of B5, the “CAR MFI on T cells, Day 5” value is reported as 9460 MFI.

Going from B1 to B2, the “CAR MFI on T cells, Day 9” value rises from 2100 MFI to 2860 MFI.

Compared with B3, B4 is lower in “CAR MFI on T cells, Day 9” value: 3470 MFI for the first, 3290 MFI for the second.

In the case of B5, the “CAR MFI on T cells, Day 9” value is reported as 929 MFI.

From patent US20190382500A1 (Novartis, published 2019)
